# Patent US11730743B2, “Protection of cells from degeneration and treatment of geographic atrophy” (University of Kentucky Research Foundation, priority 2012, dated 2023)
# Experiments:
# Caspase-1 = biological target: T1, Caspase-1 (Homo sapiens, UniProt P29466); test: Caspase-1 activation in cultured cells (western blot p20, Caspalux1 substrate cleavage); assay type: cell-based; settings: human RPE cells
# T1 construct: endogenous in cells; host or cells: primary human RPE cells; also THP-1 and HeLa cells
# T1 sequence (P29466 120-297 limits assumed): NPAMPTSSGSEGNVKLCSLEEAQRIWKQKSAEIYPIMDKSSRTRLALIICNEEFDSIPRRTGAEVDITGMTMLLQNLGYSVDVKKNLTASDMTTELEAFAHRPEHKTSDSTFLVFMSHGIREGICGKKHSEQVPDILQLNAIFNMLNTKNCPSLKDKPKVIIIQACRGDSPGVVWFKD
# T1 sequence (P29466 317-404 limits assumed): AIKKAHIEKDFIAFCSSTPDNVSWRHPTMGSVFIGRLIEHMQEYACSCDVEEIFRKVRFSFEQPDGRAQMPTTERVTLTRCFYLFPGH
# Experimental: Protein abundance and activity. Protein abundance was assessed by Western blot analysis using primary antibodies recognizing Caspase-1 (1:500; Invitrogen), pIRAK1 (1:500; Thermo Scientific), pIRAK4 (1:500, Abbomax, Inc), PYCARD (1:200, Santa Cruz Biotechnology), NLRP3 (1:500, Enzo Life Sciences) and Vinculin (1:1,000; Sigma-Aldrich). Caspase-1 activity was visualized using Caspalux1 E1D2 (OncoImmunin) reagent according to the manufacturer's instructions.
# Western blotting. Tissues or cells were homogenized in lysis buffer (10 mM Tris base, pH 7.4, 150 mM NaCl, 1 mM EDTA, 1 mM EGTA, 1% Triton X-100, 0.5% NP-40, protease and phosphatase inhibitor cocktail (Roche)). Protein concentrations were determined using a Bradford assay kit (Bio-Rad) with bovine serum albumin as a standard. Proteins (40-100 μg) were run on NuPAGE Bis-Tris gels (Invitrogen) and transferred to Immun-Blot PVDF membranes (Bio-Rad). Cells were scraped in hot Laemmli buffer (62.5 mM Tris base, pH 6.8, 2% SDS, 5% 2-Mercaptoethanol, 10% Glycerol, 0.01% Bromophenol Blue). Samples were boiled and run on 4-20% NuPAGE Tris-Glycine gels (Invitrogen). The transferred membranes were blocked for 1 h at RT and incubated with antibodies against human Caspase-1 (1:500; Invitrogen), mouse Caspase1 (1:500; MBL), NLRP3 (1:1000; Enzo Life Sciences), PYCARD (1:1000, RayBiotech), phospho-IRAK1 (S376) (1:500, Thermo Scientific), phospho-IRAK4 (T345) (1:500, AbboMax), DICER1 (1:2,000; Bethyl), MyD88 (1:1,000; Cell Signaling), and mouse IL-18 (1:200; MBL) at 4° C. overnight. Protein loading was assessed by immunoblotting using an anti-Vinculin antibody (1:1,000; Sigma-Aldrich). The secondary antibodies were used (1:5,000) for 1 h at RT. […]
# Caspase-1 activity. […] Caspalux1E1D2 signal was quantified reading the fluorescence (excitation 552 nm, emission 580 nm) using a Synergy 4 reader (Biotek). Quantification of fluorescence from images was performed by converting images into grayscale in Adobe Photoshop CS5, and measuring the integrated density of black and white images using ImageJ software (NIH) (Bogdanovich et al., 2008).
# wild-type mice = test: Laser-induced choroidal neovascularization; assay type: in vivo; settings: intravitreous injection
# [1] = test system: Dicer1f/f mouse RPE cells; test: miRNA quantification in Dicer1f/f mouse RPE cells treated with Ad-Cre; assay type: cell-based; settings: versus control peptide
# Description: miRNA quantification. Total RNA containing miRNAs was polyadenylated and reverse transcribed using universal primer using the All-In-One miRNA q-RT-PCR Detection Kit (GeneCopoeia) according to the manufacturer's specifications using a universal reverse primer in combination with forward primers for: mouse miR-184; mouse miR-221/222; mouse miR-320a; and mouse miR-484. miRNA levels were normalized to levels of U6 snRNA using the 2^−ΔΔct method. Detection was achieved by SYBR green qPCR with the following conditions: 95° C. for 10 min followed by 40 cycles of 95° C. for 10 s, 60° C. for 20 s and 72° C. for 20 s. Amplicon specificity was assessed by melt curve analysis and unique bands by agarose gel electrophoresis.
# Adenoviral infection. Cells were plated at density of 15×10^3/cm^2 and after 16 h, at approximately 50% confluence, were infected with AdCre or AdNull (Vector Laboratories) with a multiplicity of infection of 1,000.
substance,measurement,setting,value
MyD88 inhibitory peptide: peptide inhibitor of MyD88 homodimerization IMG-2005 (IMGENEX),Alu RNA-induced fluorescent substrate cleavage (Caspase-1 activity),Caspase-1; Caspalux1,did not reduce
same,Alu RNA-induced Caspase-1 cleavage (p20 subunit),Caspase-1; western blot,did not reduce
same,laser-induced choroidal neovascularization,wild-type mice,reduced
same,miRNA abundance in Dicer1 depleted cells,[1],No significant difference
